From the nanobody polyreactivity screen of Harvey et al. (2022)

Assay: yeast display, Sf9 membrane polyspecificity reagent, FACS + sequencing; frameworks hold sequencing errors
Summary of the method: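 A nanobody's polyreactivity label depends on the gate it was sorted from. Yeast display cells were stained with 10% biotinylated, detergent-solubilized Sf9 membrane reagent for 1 hour at 4 °C, enriched on streptavidin microbeads and sorted by FACS. The low and high (top ~1%) gates were set on anti-HA fluorescence for expression and streptavidin fluorescence for reagent binding.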

Sequence	polyreactivity (PSR sort gate)
QVQLVESGGGLVQAGGSLRLICAASGLTFKRYAMGWYRQAPGKEREFVAAISAGGASTHYADSVKGRFTISRDNAKNTVYLQMNSLKPEDTAVYYCATDYRSFRPSFGYWGQGTQVTVSS	low polyreactivity
QVQLVESCGGLVQAGGSLRLSCAASGSTFSYNAMGWYRQAPGKEREMVAAITYGGGSTYYADSVKGRFTISRDNAKNTVYLQMNSLKPEDTAVYYCAVEKYGRYRPYSYGYWGQGTQVTVSS	high polyreactivity
QVQLVESGGGLVQAGGSLRLSCAASGSIFTRYAMGWYRQAPGKERELVAAITASGGRTYYADSVKGRFTISRDNAKNTVYLQMNSLKPEDTAVYYCNTYWRFTSQLPYDYWGQGTQVTVSS	high polyreactivity
QVQLVESGGGLVQAGGSLRLSCAASGRTFHDYAMGWYRQAPGKERELVASISSGGSTYYADSVKGRFTISRDNAKNTVYLQMNSLKPEDTAVYYCAAYYYSTLYYRYDYWGQGTQVTVSS	low polyreactivity
QLQLVESGGGLVQAGGSLRLSCAASGRTFAIYAMGWYRQAPGKERELVAAIRKRGSITYYADSVKGRFTISRDNAKNTVYLQMNSLKPDATAVYYCAVDYWGQGTQVTVSS	high polyreactivity
QVQLVESGGGLVQAGGSLRLSCAASGRTFGYNVMGWYRQAPGKERELVAAISSGGNTYYADSVKGRFTISRDNAKNTVYLQMNSLKPEDTAVYYCNARQYRYLSDRMNYWGQGTQVTVSS	low polyreactivity
QVQLVESGGGLVQAGGSLRLSCAASGSTLYYNAMGWYRKAPGKERELVADITSGGSTSYADSVKGRFTISRDNAKNTVYLQMNSLKPEDTAVYYCAAVFYRRFDYWGQGTQVTVSS	low polyreactivity
QVHLVESGGGLVQAGGSLRLSCAASGYIFTGYAMGCYRQAPGKERELVATINTDGDSTYYADSVKGRFTISRDNAKNTVYLQMNSLKPEDTAVYYCNKRLTQAYDDQVGYDYWGQGTQVTVSS	low polyreactivity
QVQLVESGGGLVQAGGSLRVSSAASGSIFDYYEMGWYRQAPGKEREMVAAINISGGDTYYADSVKGRFTISRDNAKNTVYLQMNSLNPEDTAVYYCAADWVTWWFSRVGWDYGYWGQGTQVTVSS	low polyreactivity
QVQLVESGGGLVQAGGSLRLSCAASGSTFEYNAMGWYRQAPGKERELVASSTNYADSVKGRFTISRDNAKNTVYLQMNSLIPEDTAVYYCAREQGVNRNHDYWGQGTQVTVSS	low polyreactivity
QVQLVESGGGLVQAGGRLRLSCAASGRIFLPDGMGWYIQAAGKERELVATITIGGSSTYADSVKGRFTISRDNAKNTVNLQMNSLKPEHTAVYYCAVRRWVYYLHGYDYWGQGTQETVSS	low polyreactivity
QVQLVESGGGLVQAGGSLRLSCAASGRIFTHNAMGWYRQAPGKERELVAAISSIGGSTYYADSVKGRFTISRDNAKNTVYLQMNSLKPEDTAVYYCAVKRPLYGDSEYYYWGQGTQVTVSS	low polyreactivity
QVQLQESGGGLVQAGGSLRMSCAASGSIFSEANIGWYRQAPGKERELVATIGQGSTTNYADSVKGRFTISRDNAKNNVDLQLTSRKPEETAVYYCAVDTVDPVGFVYWGQGTQVTVRS	low polyreactivity
QVQLVESGGGLVQAGGSLRLSCAASGSIFRYYAMGWYRQAPGKERELVAAISRRGSSTYYADSVKGRFTISRDNAKNTVYLQMNSLNPEDTAVYYCAAGDFKQYDYWGQGTQVTVSS	high polyreactivity
QVQLVESGGGLVQAGGSLRLSCAASGSTSLVYAMGWYRQAPGKERELVAAISWSGGSTYYADSVKGRFTISRDNAKNTVYLQMKSLKPEDTAVYYCAAEYYGYWEYDYWGQGTQVTVSS	high polyreactivity
QVQLVESGGGLVQAGGSLRLSCAASGFTFAQYTMGWYRPAPGKERELVAAIRVGGGSTYYADSVKGRFTISRDNAKNTVYLQMNSLKPEDTAVYYCAKRTYSRKFRGAYNYWGQGTQVTVSS	high polyreactivity
QVQLVESGGGLVQAGGSLRLSCAASGSIFKYYAMGWYRQAPGKERELVAAIDWSGGNTYADSVKGRFTISRDNAKNTVYLQMNSLKPEDTAVYYCAADAFAVYRITSYNGSDSWGQGTQVTVSS	high polyreactivity
QVNLVESGGGLVQAGCSLRITCADSGRTFKHNAMGWYRQAPGKERQLVAAISRRGGSTYFADSVKGRFTISRDNAKNTVYLQMNRLKPDDTAVYYCNAGYSTFLQYYGEVWKKGCYWGQGTQVTVSS	high polyreactivity
QVQLVESGGGLVQAGGSLRLSCAASGRIFDGNTMGWYRQAPGKERELVAAITYSGGRTSYADSVKGRFTISRDNAKNTVYLQMNSLKPEDTAVYYCNARVVTGSWYEGYYWGQGTQVTVSS	low polyreactivity
QVQLVESGGGLVQAGGSLRLSCAASGRTFAYNAMGWYRQAPGKERELVAAITRRGGSTYYADSVKGRFTISRDNAKITVYLQMNSLKPEDTAVYYCDARWVTTVQGDGRYDYWGQGTQVTVSS	low polyreactivity
QVQLVESGGGLVQAGGSLRLSCAASGRTFESYAMGWYRQAPGTERELVAAITWSGGDTYYADSVKGRFTISRDNAKNTVYLQMNSLKPEETAVYYCAKEQGLYSVSPYDYWGQGTQVTVSS	low polyreactivity
QVQLVESGGGLVQAGGSLRLSCAASGRIFSRYTMGWYRQAPGKERELVATIRISGGNTYYADSVKGRFTISRDNAKNTVYLQMNSLKPDDTAVYYCAARYGWVQNTYTMYFWGQGTQVTVSS	high polyreactivity

Sequence	polyreactivity (PSR sort gate)
QVQLVESGGGLVQAGGSLRLSCAASGSIFYSYAMGWYRQAPGKERELVASINWSGASTYYADSVKGRFTISRDYAKNTVYLQMNSLKPEDTAVYYCAADWWGYDGRYDYWGQGTQVTVSS	high polyreactivity
QVQLVESGGGLVQAGGSLRLSCAASGLTFGGNAMGWYRQAPGKERELVAAISGSGGRTYYADSVKGRFTISRDNEKNTVYLQMNSLKPEDTAVYYCNAATNRRTSDYWGQGTQVTVSS	high polyreactivity
QVQLVESGGGLVQAGGSLRLSCAASGSIFARYAMGWYRQAPGKERELVAAISSNSASTYYADSVKGRFTISRDNAKNTVYLQMNSLKPEDTAVYYCATAYRSYWLNDYWGQGTQVTVSS	low polyreactivity
QVQLVETGGGLVQAGGSLRVSCAASGRTFVGNAMGWYRQPPGKERELVAAISYSGDDTYYADSVKGRFTISRDNAKNTVYLQMNSLKPVDTAVYYCAAEWTAENAGIVLELEYWGQGTQVTVSS	high polyreactivity
QVQLVESGGGLVQAGGSLRLSCAASGRIFGYYAMGWYRQAPGKERELVAAITWSGGSTYYADSVKGRFTISRDNAKNTVYLQMNSLKPEDNAVYYCAAEKRYRKAFDYWGQGTQVTVSS	high polyreactivity
QVQLVESGGGLVQAGGSLRLSCAASGSIFYPYAMGWYRQAPGKERELVAAISSGGRTYYADSVKGRFTISRDNAKNTVYLQMNSLKPEDTAVFYCAARPKAYGRPPGYYWGQGTQVTVSS	high polyreactivity
QVQLVESGGGLVQAGGSLRLSCAASGLTLDQYPMGWYRPAPGKEREFVAAISYSGGNTYYADSVKGRFTISRYNAKNTVYLQMNSLKPEETAVYYCAAYYYYFYHKVIWYELDYWGHGTQVTVSS	low polyreactivity
QVQLVESGGGLVQAGGSLRLSCAASGSTFDTNAMGWYRQPPGKERELVASISSAGSTNYADSVKGRFTISRDNAKNTVYLQMNSLKPEDTAVYYCAKYYGQFYPTTLGYWGQGTQVTVSS	low polyreactivity
QVQLVESGGGLVQAGGSLRLSCAASGFIFRFYAMGWYRQAPGKEREVVAVISRSGGSTYYADSVKGRFTISRDHAKNTVYLQMNSLKPEDTAVYYCAATFYWDSVRRGDYDYWGQGTQVTGSS	high polyreactivity
QVQLVESGGGLVQAGGSLRLSCAASGFTFNFYAMRWYRQAPGKERELVAAITASGVRRYYADSVKGRFTISRDNAKNTVYLQMNSLKPEDTAVYYCNTYMYRNKSGYDYWGQGTQVTVSS	high polyreactivity
QVQLVESGGGLVQAGGSLRLSCAASGFTFTWYAMGWYRQAPGKERELVAAISSGGGRTYYADSVKGRFTISRDNAKNTVYLQMNSLKPEDTAVYYCNKVSSFGYYYWGQGTQVTVSS	high polyreactivity
QVQLVESGGGLVQAGGSLRLSCAASGSIFLFYALGWSRQAPGKERELVATINWSGCTTYYADSVKGRFTISRDNAKNTVYFQMNSLKPEDNAFYYCAAYSVYGRYGRTFYYWGQGTQVTVSS	high polyreactivity
QVQLVESGGGLVQAGGSLRLISAASGINFTGYAMGWYRQAPGKERELVAAISYSAASTYYADSVKGRFTISRDTAKNTVYLQMNSLKPEDTAVYYCAATAPSRSYPFRYYYWGQGTQVTVSS	high polyreactivity
QVQLVESGRGLVQAGGSLRLSCAASGRIFRWYDMGWYRKAPGKERELVAAISSRGGSTYYADSVKGRFTISRDNAKNTVYLQMNSLKPEDTAVYYCAADTSGWQPRYDYWGQGTQVTVSS	high polyreactivity
QVQLVESGGGLVQAGGSLRLSCAASGNTFRLYAMGWYRQAPGKERELVATITSGVSTNYADSVKGRFTISRDNAKNTVYLQMNSLKPEDTAVYYCAARHYYTYSSGFGRYIYTEYYWGQGTQVTVSS	low polyreactivity
QVQLVESGVGLVQAGGSLRLSCAASGSIFTYYAMGWYRQAPGKEREFVAGISWSGGRTYYADSVKGRFTISRDNAKNTVYLQMNSLKPEDTAVYYCNRQYRYIPSPCDYWGQGTQVTVSS	low polyreactivity
QVQLVESGRGLVQAGGSLRISCAASGFIFSKYAMGWYRQAPGKERELVAAISYSGGSTYYADSVKGRFTISRDNAKNTVYLQMNSLKPEDTAVYYCAAEGYGGYEHWGQGTQVTVSS	low polyreactivity
QVQLVESGGGLVQAGGSLRLSCAASGSTFYAYTMGWYRQAPGKERELVAAITSSGSNTYYADSVKGRFTISRDNAKNTVYLQMNSLKPEDTAVYYCAARITREGYYWGQGTQVTVSS	high polyreactivity
QVQHVESGGALVQAAGSLSLRCAASGSTFGYNAMGWYRQAPSKEMELVAVITDSGGSSYYADSVKGRFTISRDNPKNTVYVQMHSLNPEDTAVYYCAKFYGLVVSGHVILSGFEYWGQGTLVTVSS	low polyreactivity
QVQLEESGGGLVQAGGSLRLSCAASGFTFGSYAMGWYRQAPGKEREFVAAISLGGARTYYADSVKGRFTMSRDNAKNTVYLQMHSLKPEDTAVYYGNARGIGRSTKWSSRDYWGQGTQVTVSS	high polyreactivity
QVQLVESGGGLVQAGGSLRLSCAASGITFTGYAMGWYRQAPGKERELVAAITWSSGSTYYADSVKGRFTISRDNAKNTVYLQMNSLKPEDTAVYYCNAGYWYDGPDYIPEYDYWGQGTQVTVSS	low polyreactivity
